Measured values from PMC3672029 (BMC Structural Biology, 2013).

Molecular target: the molecule itself
Assay: crystal structure; Se-Met MJ0391 (28 mg/mL), sitting-drop vapor diffusion at 293 K, 50%(v/v) PEG-400, 0.1 M MES pH 6.0; MAD, refined at 2.3 Å; two NCS molecules in the asymmetric unit, tetramer generated by the crystallographic 2-fold axis

B1: hypothetical protein MJ0391 from Methanocaldococcus jannaschii (putative CbiT) (enzyme, Methanocaldococcus jannaschii DSM 2661)
chain: MKYMIPDEEFIRREGVPITKEEIRAVSIGKLNLNKDDVVVDVGCGSGGMTVEIAKRCKFVYAIDYLDGAIEVTKQNLAKFNIKNCQIIKGRAEDVLDKLEFNKAFIGGTKNIEKIIEILDKKKINHIVANTIVLENAAKIINEFESRGYNVDAVNVFISYAKKIPSGHMFLAKNPITIIKAVR
modifications: selenomethionine in place of methionine (Se-Met protein; Mse4 and Mse169 are printed)
notes: MJ0391 protein, putative CbiT (cobalt-precorrin-7 C15-methyltransferase / C12-decarboxylase), Methanocaldococcus jannaschii DSM 2661; gene amplified from genomic DNA and cloned into pET-21a; 183 amino acid residues and 21 kDa per monomer; residues 1-3 are not seen in the final model
stoichiometry N: 4
